# Literature values, collected in patent US20260201008A1, “SECRETIN-DERIVED GLP1R SELECTIVE AGONISTS” (GUBRA A/S, priority 2023, published 2026).
# Square brackets hold non-standard residues; d marks the D form. Ends that are not written are not given here. Aib = CC(C)(N)C(=O)O
# Key:
# SCTR = SCTR (Homo sapiens, UniProt P47872); conditions: prior art value; cited from earlier work
# GLP1R = GLP1R (Homo sapiens, UniProt P43220); conditions: prior art value; cited from earlier work
# GLP1R, sequence (P43220 24-463, species assumed): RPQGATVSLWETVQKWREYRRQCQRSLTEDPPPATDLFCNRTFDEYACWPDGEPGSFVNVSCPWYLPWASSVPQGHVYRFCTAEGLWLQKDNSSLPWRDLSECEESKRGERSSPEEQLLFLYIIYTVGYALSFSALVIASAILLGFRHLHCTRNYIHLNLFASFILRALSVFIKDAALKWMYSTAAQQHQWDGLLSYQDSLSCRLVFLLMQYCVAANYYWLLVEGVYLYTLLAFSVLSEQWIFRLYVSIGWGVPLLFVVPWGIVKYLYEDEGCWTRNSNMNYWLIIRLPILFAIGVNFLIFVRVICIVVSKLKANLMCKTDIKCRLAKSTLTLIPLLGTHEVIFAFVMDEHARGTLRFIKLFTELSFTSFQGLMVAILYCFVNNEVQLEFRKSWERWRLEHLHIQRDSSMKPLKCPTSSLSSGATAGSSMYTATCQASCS
# SCTR, sequence (P47872 23-440, species assumed): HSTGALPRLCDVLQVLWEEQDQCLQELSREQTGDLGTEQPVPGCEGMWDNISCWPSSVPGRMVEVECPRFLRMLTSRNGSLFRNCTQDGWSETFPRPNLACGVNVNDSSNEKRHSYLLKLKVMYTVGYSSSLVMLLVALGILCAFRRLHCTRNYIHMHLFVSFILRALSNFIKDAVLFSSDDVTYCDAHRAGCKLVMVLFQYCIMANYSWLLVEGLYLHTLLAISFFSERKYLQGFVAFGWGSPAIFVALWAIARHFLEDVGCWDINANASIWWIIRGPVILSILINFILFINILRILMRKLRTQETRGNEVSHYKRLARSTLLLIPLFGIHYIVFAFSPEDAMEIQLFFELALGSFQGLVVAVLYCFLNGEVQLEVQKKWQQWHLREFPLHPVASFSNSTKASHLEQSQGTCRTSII
substance,measurement,setting,value
"H-Aib-EGTFTSDLSRLLEGAALQRFIQWLV (H[Aib]EGTFTSDLSRLLEGAALQRFIQWLV-NH2; N-terminus assumed; SMILES CC[C@H](C)[C@H](NC(=O)[C@H](Cc1ccccc1)NC(=O)[C@H](CCCNC(=N)N)NC(=O)[C@H](CCC(N)=O)NC(=O)[C@H](CC(C)C)NC(=O)[C@H](C)NC(=O)[C@H](C)NC(=O)CNC(=O)[C@H](CCC(=O)O)NC(=O)[C@H](CC(C)C)NC(=O)[C@H](CC(C)C)NC(=O)[C@H](CCCNC(=N)N)NC(=O)[C@H](CO)NC(=O)[C@H](CC(C)C)NC(=O)[C@H](CC(=O)O)NC(=O)[C@H](CO)NC(=O)[C@@H](NC(=O)[C@H](Cc1ccccc1)NC(=O)[C@@H](NC(=O)CNC(=O)[C@H](CCC(=O)O)NC(=O)C(C)(C)NC(=O)[C@@H](N)Cc1c[nH]cn1)[C@@H](C)O)[C@@H](C)O)C(=O)N[C@@H](CCC(N)=O)C(=O)N[C@@H](Cc1c[nH]c2ccccc12)C(=O)N[C@@H](CC(C)C)C(=O)N[C@H](C(N)=O)C(C)C) [SEQ ID NO: 216, prior art SCTR/GLP1R co-agonist (Witteloostuijn, 2017)]",EC50,SCTR,1.3 nM
same,EC50,GLP1R,0.12 nM
